Key:
[1] = molecular target: T1, FVIIa 407C (human, UniProt P08709 61-212; P08709 213-466, N-glycosylated Asn322; engineered Cys407 is largely in mixed disulfides with glutathione, cysteine and homocysteine in the untreated preparation; whether the SPR sample was selectively reduced is not …); experiment: SPR (Biacore 3000), biotinylated sTF E219C on SA chip, FVIIa as analyte, 5 mM CaCl2, 1:1 Langmuir fit
T1 construct: range 1-152;range 153-406; Recombinant, expressed in BHK cells; DNA construct as described in WO 02/077218 A1; Light and heavy chain are joined by a disulfide bond; also called Factor VIIa 407C; FVII 407C
T1 sequence (light): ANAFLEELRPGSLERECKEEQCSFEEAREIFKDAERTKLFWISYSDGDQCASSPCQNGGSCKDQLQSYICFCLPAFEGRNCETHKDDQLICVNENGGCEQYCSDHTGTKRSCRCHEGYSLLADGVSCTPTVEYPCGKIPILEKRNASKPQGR
T1 sequence (heavy): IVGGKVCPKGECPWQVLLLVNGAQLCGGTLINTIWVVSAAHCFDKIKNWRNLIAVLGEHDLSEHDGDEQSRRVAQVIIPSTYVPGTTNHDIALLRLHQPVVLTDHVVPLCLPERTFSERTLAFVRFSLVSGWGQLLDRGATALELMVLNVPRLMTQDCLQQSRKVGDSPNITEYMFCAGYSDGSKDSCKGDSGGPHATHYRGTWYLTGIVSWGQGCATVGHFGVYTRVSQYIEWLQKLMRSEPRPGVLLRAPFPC
Method: (§1) Surface plasmon resonance (SPR) analysis of the binding of FVIIa 407C, FVIIa 407C-PEG3.4 k-FVIIa 407C, and FVIIa 407C-PEG20k-FVIIa 407C to immobilized soluble tissue factor—Binding of FVIIa 407C and PEGylated variants to immobilized soluble tissue factor was analyzed by surface plasmon resonance analysis on a Biacore 3000 instrument (Biacore AB, Uppsala, Sweden). Prior to immobilization, sTF E219C was biotinylated at its free cysteine by reacting the protein with 2 mM biotin-PEO-iodoacetamide at pH 7.0 for 20 min. Excess reagent was subsequently removed by gelfiltration on a NAP™5 column (Amersham Biosciences AB, Uppsala, Sweden) equilibrated in HBS-P buffer (10 mM HEPES, 150 mM NaCl, 0.005% P20; Biacore AB, Uppsala, Sweden) containing 5 mM CaCl₂. Biotinylated sTF E19C was immobilized at a density of 2.2 fmol/mm² (˜50 RU) in flow cell 2 of a SA sensor chip (Biacore AB, Uppsala, Sweden). Kinetic analysis was performed at a flow rate of 30 μl/min in running buffer (HBS-P buffer containing 5 mM CaCl₂) using the untreated flow cell 1 for automatic in-line reference subtraction. Serial dilutions of protein from 100 nM to approx. 5 nM were analyzed. Following 3 min equilibration of the flow cells in running buffer, 90 μl protein sample was injected using the KINJECT command. The dissociation phase lasted 9 min and regeneration was performed with a 3-min pulse of 20 mM EDTA in HBS-P buffer. […]

[2] = molecular target: T2, FVIIa 407C-PEG20k-FVIIa 407C (human, UniProt P08709 61-212; P08709 213-466, N-glycosylated Asn322; Cys407 of the two protomers cross-linked through maleimide-PEG20k-maleimide; 10 gamma-carboxylated glutamic acid (GLA) residues; O-glycosylated Ser52 and Ser60; N-glycosylated …); experiment: SPR (Biacore 3000), biotinylated sTF E219C on SA chip, FVIIa dimer as analyte, 5 mM CaCl2, 1:1 Langmuir fit
T2 construct: range 1-152;range 153-406
T2 sequence (light): T1 sequence (light)
T2 sequence (heavy): T1 sequence (heavy)
Method: (§2) Surface plasmon resonance (SPR) analysis of the binding of FVIIa 407C, FVIIa 407C-PEG3.4 k-FVIIa 407C, and FVIIa 407C-PEG20k-FVIIa 407C to immobilized soluble tissue factor—Binding of FVIIa 407C and PEGylated variants to immobilized soluble tissue factor was analyzed by surface plasmon resonance analysis on a Biacore 3000 instrument (Biacore AB, Uppsala, Sweden). Prior to immobilization, sTF E219C was biotinylated at its free cysteine by reacting the protein with 2 mM biotin-PEO-iodoacetamide at pH 7.0 for 20 min. Excess reagent was subsequently removed by gelfiltration on a NAP™5 column (Amersham Biosciences AB, Uppsala, Sweden) equilibrated in HBS-P buffer (10 mM HEPES, 150 mM NaCl, 0.005% P20; Biacore AB, Uppsala, Sweden) containing 5 mM CaCl₂. Biotinylated sTF E19C was immobilized at a density of 2.2 fmol/mm² (˜50 RU) in flow cell 2 of a SA sensor chip (Biacore AB, Uppsala, Sweden). Kinetic analysis was performed at a flow rate of 30 μl/min in running buffer (HBS-P buffer containing 5 mM CaCl₂) using the untreated flow cell 1 for automatic in-line reference subtraction. Serial dilutions of protein from 100 nM to approx. 5 nM were analyzed. Following 3 min equilibration of the flow cells in running buffer, 90 μl protein sample was injected using the KINJECT command. The dissociation phase lasted 9 min and regeneration was performed with a 3-min pulse of 20 mM EDTA in HBS-P buffer. SPR data were fitted to a 1:1 Langmuir binding model using BIAevaluation 4.1 software (Biacore AB, Uppsala, Sweden).

[3] = molecular target: T3, FVIIa 407C-PEG3.4k-FVIIa 407C (human, UniProt P08709 61-212; P08709 213-466, N-glycosylated Asn322; Cys407 of the two protomers cross-linked through maleimide-PEG3.4k-maleimide; 10 gamma-carboxylated glutamic acid (GLA) residues; O-glycosylated Ser52 and Ser60; N-glycosylated …); experiment: as above
T3 construct: range 1-152;range 153-406
T3 sequence (light): T1 sequence (light)
T3 sequence (heavy): T1 sequence (heavy)
Method: as §2

[4] = molecular target: T1, FVIIa 407C; experiment: SPR (Biacore 3000), biotinylated sTF E219C on SA chip, FVIIa as analyte; KD calculated from kon and koff
Method: as §1

[5] = molecular target: T2, FVIIa 407C-PEG20k-FVIIa 407C; experiment: SPR (Biacore 3000), biotinylated sTF E219C on SA chip, FVIIa dimer as analyte; KD calculated from kon and koff
Method: as §1

[6] = molecular target: T3, FVIIa 407C-PEG3.4k-FVIIa 407C; experiment: as above
Method: as §1

- koff [1]: 0.0015 s⁻¹
- kon [1]: 280000 M⁻¹ s⁻¹
- koff [2]: 0.00016 s⁻¹
- kon [2]: 310000 M⁻¹ s⁻¹
- koff [3]: 0.00015 s⁻¹
- kon [3]: 350000 M⁻¹ s⁻¹
- Kd [4]: 5.5 nM
- Kd [5]: 0.5 nM
- Kd [6]: 0.4 nM
B1: sTF (1-219) Glu219→Cys (E219C), biotinylated (receptor)
chain: SGTTNTVAAYNLTWKSTNFKTILEWEPKPVNQVYTVQISTKSGDWKSKCFYTTDTECDLTDEIVKDVKQTYLARVFSYPAGNVESTGSAGEPLYENSPEFTPYLETNLGQPTIQSFEQVGTKVNVTVEDERTLVRRNNTFLSLRDVFGKDLIYTLYYWKSSSSGKKTAKTNTNEFLIDVDKGENYCFSVQAVIPSRTVNRKSTDSPVECMGQEKGEFRC
modifications: Cys219 alkylated with biotin-PEO-iodoacetamide (biotinylated at its free cysteine) ; chain 1 pos 219: Cys alkylated with biotin-PEO-iodoacetamide (biotinylated at its free cysteine), written C. It was captured through this biotin on a streptavidin (SA) sensor chip.
notes: Immobilized on a streptavidin (SA) sensor chip at 2.2 fmol/mm^2 (~50 RU); also called sTF E219C; biotinylated sTF E19C

— patent US20090041744A1 (published 2009)
